The source of these data is article PMC9410543.

B1: unnamed (parent)
chain 1: VGDDSGGFSTTVSTEQNVPDPQVGITTMKDLKGKANRGKMDVSGVQAPVGAITTIEDPVLAKKVPETFPELKPGESRHTSDHMSIYKFMGRSHFLCTFTFNSNNKEYTFPITLSSTSNPPHGLPSTLRWFFNLFQLYRGPLDLTIIITGATDVDGMAWFTPVGLAVDTPWVEKESALSIDYKTALGAVRFNTRRTGNIQIRLPWYSYLYAVSGALDGLGDKTDSTFGLVSIQIANYNHSDEYLSFSCYLSVTEQSEFYFPRAPLNSNAMLSTESMMSRIAAGDLESSVDDPRSEEDKRFESHIECRKPYKELRLEVGKQRLKYAQEELSNEVLPPPRKMKGLFSQ
chain 2: MAVSESQLKKMVSKYKYRDLTVRETVNVITLYKDLKPVLDSYVFNDGSSRELMNLTGTIPVPYRGNTYNIPICLWLLDTYPYNPPICFVKPTSSMTIKTGKHVDANGKIYLPYLHEWKHPQSDLLGLIQVMIVVFGDEPPVFSRPISASYPPYQATGPPNTSYMPGMPGGISPYPSGYPPNPSGYPGCPYPPGGPYPATTSSQYPSQPPVTTVGPSRDGTISEDTIRASLISAVSDKLRWRMKEEMDRAQAELNALKRTEEDLKKGHQKLEEMVTRLDQEVAEVDKNIELLKKKDEELSSALEKMENQSENNDIDEVIIPTAPLYKQILNLYAEENAIEDTIFYLGEALRRGVIDLDVFLKHVRLLSRKQFQLRALMQKARKTAGLSDLY
B2: unnamed (parent)
chain 1: B1 chain 1
chain 2: MATFISVQLKKTSEVDLAKPLVKFIQQTYPSGGEEQAQYCRAAEELSKLRRAAVGRPLDKHEGALETLLRYYDQICSIEPKFPFSENQICLTFTWKDAFDKGSLFGGSVKLALASLGYEKSCVLFNCAALASQIAAEQNLDNDEGLKIAAKHYQFASGAFLHIKETVLSALSREPTVDISPDTVGTLSLIMLAQAQEVFFLKATRDKMKDAIIAKLANQAADYFGDAFKQCQYKDTLPKEVFPVLAAKHCIMQANAEYHQSILAKQQKKFGEEIARLQHAAELIKTVASRYDEYVNVKDFSDKINRALAAAKKDNDFIYHDRVPDLKDLDPIGKATLVKSTPVNVPISQKFTDLFEKMVPVSVQQSLAAYNQRKADLVNRSIAQMREATTLANGVLASLNLPAAIEDVSGDTVPQSILTKSRSVIEQGGIQTVDQLIKELPELLQRNREILDESLRLLDEEEATDNDLRAKFKERWQRTPSNELYKPLRAEGTNFRTVLDKAVQADGQVKECYQSHRDTIVLLCKPEPELNAAIPSANPAKTMQGSEVVNVLKSLLSNLDEVKKEREGLENDLKSVNFDMTSKFLTALAQDGVINEEALSVTELDRVYGGLTTKVQESLKKQEGLLKNIQVSHQEFSKMKQSNNEANLREEVLKNLATAYDNFVELVANLKEGTKFYNELTEILVRFQNKCSDIVFARKTERDELLKDLQQSIAREPSAPSIPTPAYQSSPAGGHAPTPPTPAPRTMPPTKPQPPARPPPPVLPANRAPSATAPSPVGAGTAAPAPSQTPGSAPPPQAQGPPYPTYPGYPGYCQMPMPMGYNPYAYGQYNMPYPPVYHQSPGQAPYPGPQQPSYPFPQPPQQSYYPQQ
B3: unnamed (parent)
chain 1: B1 chain 1
chain 2: not shown

Variants of B1 are the subject of one assay. Description: protein-fragment complementation assay (split Gaussia luciferase, GLuc2 bait / GLuc1 prey). Conditions: with partner chain of the complex shown;; read off a plot.
With chain 1 Y309A K310A E311A L312A, the response (Log2 normalized LU) turned out to be 4.4.

Another assay covers variants of B2. The description is as above. To be noted: with partner chain of the complex shown;; read off a plot.
For the variant chain 1 Y309A K310A E311A L312A, the response (Log2 normalized LU) was found to be 4.7.

The variants in the next assay derive from B3. Described as above. To be noted: with partner chain of the complex shown;; read off a plot.
Consider chain 1 Y309A K310A E311A L312A, for which the response (Log2 normalized LU) came out at 3.
